Several values for one entry are separate records, joined by “and”; a condition that tells them apart may be missing. Equal values may be shown once.
B1: Chitosanase, P33665 (parent)
chain: MHSQHRTARIALAVVLTAIPASLATAGVGYASTQASTAVKAGAGLDDPHKKEIAMELVSSAENSSLDWKAQYKYIEDIGDGRGYTGGIIGFCSGTGDMLELVQHYTDLEPGNILAKYLPALKKVNGSASHSGLGTPFTKDWATAAKDTVFQQAQNDERDRVYFDPAVSQAKADGLRALGQFAYYDAIVMHGPGNDPTSFGGIRKTAMKKARTPAQGGDETTYLNAFLDARKAAMLTEAAHDDTSRVDTEQRVFLKAGNLDLNPPLKWKTYGDPYVINS

Variants of: B1
Details: Streptomyces sp. (strain N174); pH 7; 42.7 °C; Thermal; CD; sodium phosphate 50 mM; transition: 3; reversible: yes(79%); structure 1CHK; whole UniProt chain shown

Which “ddG of mutation (higher = less stable)” value does the source give for MHSQHRTARIALAVVLTAIPASLATAGVGYASTQASTAVKAGAGLDDPHKKEIAMELVSSAENSSLDWKAQYKYIEDIGDGRGYTGGIIGFCSGTGDMLELVQHYTDLEPGNILAKYLPALKKVNGSASHSGLGTPFTKDWATAAKDTVFQQAQNDERDRVYFDPAVSQAKADGLRALGQFAYYDAIVMHGPGNDPTSFGGIRKTAMKKARTPAQGGDETTYLNAFLDARKAAMLTEAAHDDTSRVDTEQRVFLKAGNLDLNPPLKFKTYGDPYVINS [W267F] here?
The value was 12.4 kJ/mol.

Same assay, conditions: Streptomyces sp. (strain N174); pH 7; 43.2 °C; Thermal; Fluorescence; sodium phosphate 50 mM; reversible: yes(81%); structure 1CHK; whole UniProt chain shown

Which “ddG of mutation (higher = less stable)” value does the source give for MHSQHRTARIALAVVLTAIPASLATAGVGYASTQASTAVKAGAGLDDPHKKEIAMELVSSAENSSLDWKAQYKYIEDIGDGRGYTGGIIGFCSGTGDMLELVQHYTDLEPGNILAKYLPALKKVNGSASHSGLGTPFTKDWATAAKDTVFQQAQNDERDRVYFDPAVSQAKADGLRALGQFAYYDAIVMHGPGNDPTSFGGIRKTAMKKARTPAQGGDETTYLNAFLDARKAAMLTEAAHDDTSRVDTEQRVFLKAGNLDLNPPLKFKTYGDPYVINS [W267F] here?
The value was 10.5 kJ/mol.

Same assay, conditions: Streptomyces sp. (strain N174); pH 7; 52.2 °C; Thermal; CD; sodium phosphate 50 mM; transition: 3; reversible: yes(79%); structure 1CHK; whole UniProt chain shown

Which “ddG of mutation (higher = less stable)” value does the source give for MHSQHRTARIALAVVLTAIPASLATAGVGYASTQASTAVKAGAGLDDPHKKEIAMELVSSAENSSLDWKAQYKYIEDIGDGRGYTGGIIGFCSGTGDMLELVQHYTDLEPGNILAKYLPALKKVNGSASHSGLGTPFTKDWATAAKDTVFQQAQNDERDRVYFDPAVSQAKADGLRALGQFAYYDAIVMHGPGNDPTSFGGIRKTAMKKARTPAQGGDETTYLNAFLDARKAAMLTEAAHDDTSRVDTEQRVFLKAGNLDLNPPLKFKTYGDPYVINS [W267F] here?
The value was 5.48 kJ/mol.

Same assay, conditions: Streptomyces sp. (strain N174); pH 7; Thermal; CD; sodium phosphate 50 mM; transition: 3; reversible: yes(79%); structure 1CHK; whole UniProt chain shown

Which results are given for MHSQHRTARIALAVVLTAIPASLATAGVGYASTQASTAVKAGAGLDDPHKKEIAMELVSSAENSSLDWKAQYKYIEDIGDGRGYTGGIIGFCSGTGDMLELVQHYTDLEPGNILAKYLPALKKVNGSASHSGLGTPFTKDWATAAKDTVFQQAQNDERDRVYFDPAVSQAKADGLRALGQFAYYDAIVMHGPGNDPTSFGGIRKTAMKKARTPAQGGDETTYLNAFLDARKAAMLTEAAHDDTSRVDTEQRVFLKAGNLDLNPPLKFKTYGDPYVINS [W267F]?
change of melting temperature, mutant - wild type (higher = more stable): -6.8 °C and -6.4 °C; unfolding enthalpy (van 't Hoff): 565 kJ/mol and 272 kJ/mol

Same assay, conditions: Streptomyces sp. (strain N174); pH 7; Thermal; Fluorescence; sodium phosphate 50 mM; reversible: yes(81%); structure 1CHK; whole UniProt chain shown

Which results are given for MHSQHRTARIALAVVLTAIPASLATAGVGYASTQASTAVKAGAGLDDPHKKEIAMELVSSAENSSLDWKAQYKYIEDIGDGRGYTGGIIGFCSGTGDMLELVQHYTDLEPGNILAKYLPALKKVNGSASHSGLGTPFTKDWATAAKDTVFQQAQNDERDRVYFDPAVSQAKADGLRALGQFAYYDAIVMHGPGNDPTSFGGIRKTAMKKARTPAQGGDETTYLNAFLDARKAAMLTEAAHDDTSRVDTEQRVFLKAGNLDLNPPLKFKTYGDPYVINS [W267F]?
Tm: 37.3 °C; change of melting temperature, mutant - wild type (higher = more stable): -5.9 °C; unfolding enthalpy (van 't Hoff): 552 kJ/mol

Same assay, conditions: Streptomyces sp. (strain N174); pH 7; 42.7 °C; Thermal; CD; sodium phosphate 50 mM; transition: 3; reversible: yes(68%); structure 1CHK; whole UniProt chain shown

For MHSQHRTARIALAVVLTAIPASLATAGVGYASTQASTAVKAGAGLDDPHKKEIAMELVSSAENSSLDFKAQYKYIEDIGDGRGYTGGIIGFCSGTGDMLELVQHYTDLEPGNILAKYLPALKKVNGSASHSGLGTPFTKDFATAAKDTVFQQAQNDERDRVYFDPAVSQAKADGLRALGQFAYYDAIVMHGPGNDPTSFGGIRKTAMKKARTPAQGGDETTYLNAFLDARKAAMLTEAAHDDTSRVDTEQRVFLKAGNLDLNPPLKWKTYGDPYVINS [W68F W141F], which “ddG of mutation (higher = less stable)” value is on record?
The value was 24.3 kJ/mol.

Same assay, conditions: Streptomyces sp. (strain N174); pH 7; 43.2 °C; Thermal; Fluorescence; sodium phosphate 50 mM; reversible: yes(80%); structure 1CHK; whole UniProt chain shown

With MHSQHRTARIALAVVLTAIPASLATAGVGYASTQASTAVKAGAGLDDPHKKEIAMELVSSAENSSLDFKAQYKYIEDIGDGRGYTGGIIGFCSGTGDMLELVQHYTDLEPGNILAKYLPALKKVNGSASHSGLGTPFTKDFATAAKDTVFQQAQNDERDRVYFDPAVSQAKADGLRALGQFAYYDAIVMHGPGNDPTSFGGIRKTAMKKARTPAQGGDETTYLNAFLDARKAAMLTEAAHDDTSRVDTEQRVFLKAGNLDLNPPLKWKTYGDPYVINS [W68F W141F] as the variant, how does the “ddG of mutation (higher = less stable)” value read?
Its value is 33.6 kJ/mol.

Same assay, conditions: Streptomyces sp. (strain N174); pH 7; 52.2 °C; Thermal; CD; sodium phosphate 50 mM; transition: 3; reversible: yes(68%); structure 1CHK; whole UniProt chain shown

For MHSQHRTARIALAVVLTAIPASLATAGVGYASTQASTAVKAGAGLDDPHKKEIAMELVSSAENSSLDFKAQYKYIEDIGDGRGYTGGIIGFCSGTGDMLELVQHYTDLEPGNILAKYLPALKKVNGSASHSGLGTPFTKDFATAAKDTVFQQAQNDERDRVYFDPAVSQAKADGLRALGQFAYYDAIVMHGPGNDPTSFGGIRKTAMKKARTPAQGGDETTYLNAFLDARKAAMLTEAAHDDTSRVDTEQRVFLKAGNLDLNPPLKWKTYGDPYVINS [W68F W141F], which “ddG of mutation (higher = less stable)” value is on record?
The value was 6.32 kJ/mol.

Same assay, conditions: Streptomyces sp. (strain N174); pH 7; Thermal; CD; sodium phosphate 50 mM; transition: 3; reversible: yes(68%); structure 1CHK; whole UniProt chain shown

For MHSQHRTARIALAVVLTAIPASLATAGVGYASTQASTAVKAGAGLDDPHKKEIAMELVSSAENSSLDFKAQYKYIEDIGDGRGYTGGIIGFCSGTGDMLELVQHYTDLEPGNILAKYLPALKKVNGSASHSGLGTPFTKDFATAAKDTVFQQAQNDERDRVYFDPAVSQAKADGLRALGQFAYYDAIVMHGPGNDPTSFGGIRKTAMKKARTPAQGGDETTYLNAFLDARKAAMLTEAAHDDTSRVDTEQRVFLKAGNLDLNPPLKWKTYGDPYVINS [W68F W141F], which “change of melting temperature, mutant - wild type (higher = more stable)” value is on record?
The value was -11.4 °C and -8 °C.

And the “unfolding enthalpy (van 't Hoff)” value?
Its value is 649 kJ/mol and 251 kJ/mol.

Same assay, conditions: Streptomyces sp. (strain N174); pH 7; Thermal; Fluorescence; sodium phosphate 50 mM; reversible: yes(80%); structure 1CHK; whole UniProt chain shown

What does the source list for MHSQHRTARIALAVVLTAIPASLATAGVGYASTQASTAVKAGAGLDDPHKKEIAMELVSSAENSSLDFKAQYKYIEDIGDGRGYTGGIIGFCSGTGDMLELVQHYTDLEPGNILAKYLPALKKVNGSASHSGLGTPFTKDFATAAKDTVFQQAQNDERDRVYFDPAVSQAKADGLRALGQFAYYDAIVMHGPGNDPTSFGGIRKTAMKKARTPAQGGDETTYLNAFLDARKAAMLTEAAHDDTSRVDTEQRVFLKAGNLDLNPPLKWKTYGDPYVINS [W68F W141F]?
Tm: 31.2 °C; change of melting temperature, mutant - wild type (higher = more stable): -12 °C; unfolding enthalpy (van 't Hoff): 852 kJ/mol
